The values below come from US20260217787A1 (MONSANTO TECHNOLOGY, published 2026).

The target in assay [1] is SfABCa3 (Spodoptera frugiperda). Nature of the assay: cell-based or functional assay.
For assay [2], the target named is HzABCa7 (Helicoverpa zea). Nature of the assay: cell-based or functional assay.
Assay [3] has as its target SfABCc2 (Spodoptera frugiperda). Briefly: cell-based or functional assay.
Assay [4] deals with Spodoptera_frugiperda_ABC_transporter (Spodoptera frugiperda). Briefly: cell-based or functional assay.
The next assay concerns the target T1, Cry3Aa (Bacillus thuringiensis, UniProt P0A379 1-644).
T1 sequence: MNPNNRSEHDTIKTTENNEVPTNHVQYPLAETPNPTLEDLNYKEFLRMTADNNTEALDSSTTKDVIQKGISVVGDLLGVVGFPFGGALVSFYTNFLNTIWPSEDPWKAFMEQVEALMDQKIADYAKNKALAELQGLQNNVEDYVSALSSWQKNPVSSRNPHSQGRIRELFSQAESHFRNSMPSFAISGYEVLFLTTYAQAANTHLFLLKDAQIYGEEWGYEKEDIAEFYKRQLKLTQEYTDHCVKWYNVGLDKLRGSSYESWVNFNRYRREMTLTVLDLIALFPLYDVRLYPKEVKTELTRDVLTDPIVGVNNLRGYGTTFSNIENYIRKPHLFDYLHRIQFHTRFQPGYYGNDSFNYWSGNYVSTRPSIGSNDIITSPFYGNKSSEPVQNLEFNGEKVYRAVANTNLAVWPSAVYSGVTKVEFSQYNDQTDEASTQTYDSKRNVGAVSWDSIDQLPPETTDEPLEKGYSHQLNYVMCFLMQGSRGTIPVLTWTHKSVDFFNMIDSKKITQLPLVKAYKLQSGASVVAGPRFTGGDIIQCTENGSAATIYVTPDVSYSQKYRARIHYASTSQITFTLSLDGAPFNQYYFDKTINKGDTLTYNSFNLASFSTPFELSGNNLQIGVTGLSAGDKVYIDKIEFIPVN
Nature of the assay: yeast two-hybrid.

As for “Cry2Ab as used in the Sf9 cytotoxicity assays (ligand)”, the figures for the Sytox Green Fluresence, treatment (control buffer 5398) in assay [1] and in assay [2] were 30600 and 55300, respectively. “Cry1Ac as used in the Sf9 cytotoxicity assays (from UniProt P05068 29-623) (ligand)”: the Sytox Green Fluresence, treatment (control buffer 645) in assay [3] turned out to be 20700; in assay [4], 18600.

B1: Aminopeptidase Fragment 5 (receptor)
chain: GFPVVNAVFNGKNVTFSQKRFLYTGNNNTQWYIPVTYRLSNSSSYETFWLAPNSSVTILNNLTDKDWLIVNDDSRGYYRVKYCKRLTQRIQSLLNQNHTQISELNRAQILDDSLNLARAGYIKYSEAFELLEYLKNETSYFPWFTTIKNMDYLVTRLGANTELGKRTNAMILDLISQISANISTTKWEEIDQVTTLKLQRVWADACKRGQASCISETKRLFQALRLNKTSVNPNIRDVVYCNALRNSNNIAADWEFLWNRLLISIHPQEDLYILLSLGCTTHKPYLTRLLDATINSTSVIKLQNLYTVWNSVGSASKEGLDLAFEYFVNNYKKIIEYYPDGISLLSQLANRFTTNAEVTKLQQFADRLEKNSTIRAVANSALTTARQNLQFRARIEDDLNDYFKIDNSGSSV
notes: Yeast two-hybrid construct; also called Aminopeptidase N fragment 5
As for B1, in the assay with Cry3Aa, the binding result is given as “no binding”.
